Data on eight molecules can be found in patent publication US20170002079A1 (Amgen, published 2017).

For orientation: koff means a measure of how fast the partners let go of each other.

The chains are these.
T1: human ST2 on primary human cells (human, UniProt Q01638 19-556)
T1 sequence: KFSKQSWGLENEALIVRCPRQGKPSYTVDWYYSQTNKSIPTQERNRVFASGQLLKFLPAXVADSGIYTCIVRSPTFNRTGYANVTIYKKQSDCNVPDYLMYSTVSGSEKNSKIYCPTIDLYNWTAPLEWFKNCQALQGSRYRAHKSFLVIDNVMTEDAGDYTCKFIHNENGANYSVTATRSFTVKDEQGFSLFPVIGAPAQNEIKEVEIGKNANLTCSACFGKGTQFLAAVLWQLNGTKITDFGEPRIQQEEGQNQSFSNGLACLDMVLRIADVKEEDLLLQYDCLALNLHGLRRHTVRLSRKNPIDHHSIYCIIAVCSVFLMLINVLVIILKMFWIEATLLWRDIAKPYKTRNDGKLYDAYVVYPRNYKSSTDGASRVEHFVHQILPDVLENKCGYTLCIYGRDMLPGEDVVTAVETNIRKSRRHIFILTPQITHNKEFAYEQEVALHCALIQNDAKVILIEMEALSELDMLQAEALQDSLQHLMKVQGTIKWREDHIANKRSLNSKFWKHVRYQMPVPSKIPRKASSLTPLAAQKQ

T2: cynomolgus monkey ST2 on cynomolgus monkey CD4+ T cells (cynomolgus monkey, UniProt Q01638 19-556 (human entry))
T2 chain: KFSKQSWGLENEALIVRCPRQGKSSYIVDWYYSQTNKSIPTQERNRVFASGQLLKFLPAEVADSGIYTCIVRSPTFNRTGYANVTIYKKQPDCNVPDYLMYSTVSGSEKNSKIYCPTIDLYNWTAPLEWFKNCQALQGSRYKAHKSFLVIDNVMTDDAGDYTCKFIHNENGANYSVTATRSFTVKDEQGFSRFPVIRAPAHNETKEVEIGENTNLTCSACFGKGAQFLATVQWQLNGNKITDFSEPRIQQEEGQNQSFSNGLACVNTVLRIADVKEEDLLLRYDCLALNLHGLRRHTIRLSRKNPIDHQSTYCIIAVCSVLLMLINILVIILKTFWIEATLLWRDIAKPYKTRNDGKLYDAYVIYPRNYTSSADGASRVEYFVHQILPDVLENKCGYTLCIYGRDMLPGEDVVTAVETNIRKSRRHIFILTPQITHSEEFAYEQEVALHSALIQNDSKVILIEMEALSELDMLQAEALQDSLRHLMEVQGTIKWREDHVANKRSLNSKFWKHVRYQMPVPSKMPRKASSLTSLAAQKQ

B1: Ab4 (antibody, human IgG2, kappa, V domains shown)
VH: QVQLVQSGAEVKKPGASVKVSCEVSGFILTELSVNWVRQAPGKGLEWMGGFDPEDGKTIYAQKFQGRVTLTEDTSTDTAYMELSSLRSEDTAVYYCATWWDFHFDFWGQGTLVTVSS
VL: DFVMTQTPLSLSVTPGQPASISCKSSQSLLHSNGKTYLYWFLQKPGQPPQLLIYEVSNRFSGVPDRFSGSGSGTDFTLKISRVEAEDVGVYYCMQSIQLPLTFGGGTKVEIKR
notes: Fully human anti-ST2 antibody
B2: Ab2 (antibody, human IgG2, kappa, V domains shown)
VH: EVQLVQSGAEVKKPGESLKISCKGSGYSFTNYWIGWVRQMPGKGLEWMGIIYPGNSDTRFSPSFQGQVTISADKSITTAYLQWSSLKASDTAMYYCARHGTSSDYYGLDVWGQGTTVTVSS
VL: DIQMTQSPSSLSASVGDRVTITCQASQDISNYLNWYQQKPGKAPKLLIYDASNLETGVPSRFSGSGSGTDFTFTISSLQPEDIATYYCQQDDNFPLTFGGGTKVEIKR
notes: Fully human anti-ST2 antibody (XenoMouse); Full chains are the exemplary Ab2 chains
B3: Ab1 (antibody, human IgG2, kappa, V domains shown)
VH: QVQLVQSGAEVKKPGASVKVSCKVSGYTLTELSIHWVRQAPGKGLEWMGGFGPEDGETIYAQKFQGRVTMTEDTSTDTAYMELSSLRSEDTAVYYCTTEDSSGLFDYWGQGTLVTVSS
VL: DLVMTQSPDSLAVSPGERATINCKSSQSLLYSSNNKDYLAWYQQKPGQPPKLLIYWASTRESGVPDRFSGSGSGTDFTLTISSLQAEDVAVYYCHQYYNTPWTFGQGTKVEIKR
notes: Fully human anti-ST2 antibody (XenoMouse); Full chains are the exemplary Ab1 chains
B4: Ab3 (antibody, human IgG2, kappa, V domains shown)
VH: EVQLVESGGGLVQPGGSLRLSCAASGFTFSTYDMHWIRQAPGKNLEWVSAIDLAGDTYYPGSVKGRFTISREDAKNSLYLQMNSLRAGDTAVYYCARGGDGYNYDYYGIDVWGQGTTVTVSS
VL: DIVMTQSPLSLPVTPGEPASISCRSSQSLLHSDGYHYLDWYLQKPGQSPQLLIYLGSNRASGVPDRFTGSGSGTDFTLKISRVEAEDVGVYYCMQALQILTFGGGTKVEIKR
notes: Fully human anti-ST2 antibody
B5: Ab8 (antibody, human IgG2, kappa, V domains shown)
VH: EVQLVESGGGLVQPGGSLRLSCAASGFTFSSYDMYWVRQATGKGLEWVSAIDTVGDTYYPGSVKGRFTISRENAKNSLYLQMNSLRVGDTAVYYCARGGDYDYSYYGMDVWGQGTTVTVSS
VL: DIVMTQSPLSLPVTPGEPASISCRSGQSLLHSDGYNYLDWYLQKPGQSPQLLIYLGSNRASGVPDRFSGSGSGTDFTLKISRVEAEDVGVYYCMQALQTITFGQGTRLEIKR
B6: Ab6 (antibody, human IgG2, kappa, V domains shown)
VH: B4 VH with I37V, A40T, P41T, N44G
VL: B4 VL with T68S, K79N, I99T
B7: Ab5 (antibody, human IgG2, kappa, V domains shown)
VH: EVQLVESGGGWVQPGGSLRLSCAASGFTFSSYDMYWVRQATGKGLEWVSGIDTVGDTYYPDSVKGRFTISRENAKNSVYLQMNTLRAGDTAVYYCVRGIYGDFYYYGLDVWGHGTTVTVSS
VL: B4 VL with H31Y, Y35N, H36N, Q50H, T68S, E86D, I99T
B8: Ab7 (antibody, human IgG2, kappa, V domains shown)
VH: B4 VH with I37V, A40T, P41T, N44G
VL: B4 VL with T68S, K79N, I99T

Numbering of substitutions follows the chain as printed.

One experiment deals with ST2 (Example 4, pH-sensitive binding). As to the kind of experiment: SPR Biacore 4000; kd at pH 5.5 against kd at pH 7.4. As to the method:
(§1) The association (5 min) rates at pH 7.4 and dissociation (10 min) rates at pH 5.5 and 7.4 were monitored at a flow rate of 30 uL/min. The reference subtracted data was fit to a 1:1 model in Scrubber.
Background: SPR reads the build-up and loss of mass on a sensor chip optically.
With B1, the “pH 7.4/pH 5.5 kd fold change” value was determined as 16.9 fold.

Take B2: the “pH 7.4/pH 5.5 kd fold change” value amounted to 8 fold.

Regarding B3, the “pH 7.4/pH 5.5 kd fold change” value is 88.1 fold.

Take B4: the “pH 7.4/pH 5.5 kd fold change” value was 2.9 fold.

A further experiment has as its target T1, human ST2 on primary human cells. Kind of experiment: cell-based or functional assay.
Consider B5, for which the “IC-50, human eosinophil IL-8 release assay (IL-33 and IL-3 stimulation)” value is 3120 pM.

The target is the same in a further experiment. Kind of experiment: cell-based or functional assay. The source holds these as a separate data set.
For B5, the “IC50 (nM), inhibition of human IL-33-induced IL-5 production from human CD4+ T cells” value stood at 6.9 nM.

The target of a further experiment is ST2 (Example 4, pH-sensitive binding). Kind of experiment: SPR Biacore 4000; association at pH 7.4, dissociation at pH 5.5; estimated kd. As to the method:
as §1
With B1, the koff is 0.0107 s⁻¹.

Consider B2, for which the koff was 0.000238 s⁻¹.

Regarding B3, the koff is 0.0118 s⁻¹.

As to B4, the koff was 7.91e-05 s⁻¹.

Another experiment addresses T2, cynomolgus monkey ST2 on cynomolgus …. Kind of experiment: cell-based or functional assay.
Regarding B5, the “IC-50, cynomolgus monkey CD4+ T cell IFNγ release assay (IL-33, IL-2 and IL-12p70 stimulation)” value was determined as 158 pM.

The next experiment deals with ST2 (Example 4, pH-sensitive binding). Kind of experiment: SPR Biacore 4000; association at pH 7.4, dissociation at pH 7.4; estimated kd. The procedure: as §1
As to B1, the koff was 0.000632 s⁻¹.

For B2, the koff was 2.98e-05 s⁻¹.

As for B3, the koff was 0.000134 s⁻¹.

With B4, the koff is 2.73e-05 s⁻¹.

The next experiment concerns the target T1, human ST2 on primary human cells. Kind of experiment: cell-based or functional assay. This is another data set of the same source.
With B1, the “IC50 (read off the curve); % inhibition of IL-5 production by human CD4+ T cells stimulated with human IL-33 + IL-2” value (shortened to “IC50 (read off the curve); % inhibition”) is roughly 0.08 µg/mL.

As for B5, the “IC50 (read off the curve); % inhibition” value was roughly 0.9 µg/mL.

Take B2: the “IC50 (read off the curve); % inhibition” value was roughly 0.03 µg/mL.

Consider B6, for which the “IC50 (read off the curve); % inhibition” value was roughly 0.09 µg/mL.

Turning to B7, the “IC50 (read off the curve); % inhibition” value was roughly 0.09 µg/mL.

As for B8, the “IC50 (read off the curve); % inhibition” value was roughly 0.02 µg/mL.

Consider B4, for which the “IC50 (read off the curve); % inhibition” value was roughly 0.3 µg/mL.
